Measurements from paper PMC6731145.

B1: CX3CR1-DNA (dsDNA)
DNA 1: GATCCGCAGGGCCTCTCGGCTGCTGATCTTCAGCTGGTTGCTGAGAGTTGCAGCATTGCTGAGTCTTAGCAATGGATACTTCCCGATTCCCCTCACAAAAATAGGTCAGTCTGTCTGGCTAGTTCTGTACTTGCAGACACAGGGCATGTGGGGTTCCGGATC
DNA 2: GATCCGGAACCCCACATGCCCTGTGTCTGCAAGTACAGAACTAGCCAGACAGACTGACCTATTTTTGTGAGGGGAATCGGGAAGTATCCATTGCTAAGACTCAGCAATGCTGCAACTCTCAGCAACCAGCTGAAGATCAGCAGCCGAGAGGCCCTGCGGATC
B2: NRCAM-DNA (dsDNA)
DNA 1: GATCCATTACTTCTGAAACAGATGACTCCCAGCAGCTGCTGCCTGTGGCCCACAGGGCTTCCTGCCCTGCATGACAGCTGCACATCACATCCTGTGGTCATACTACTTCAGCCGCTTCTACGGCCAGATACAAAAGTGGGTGGGGAACATAGGCAAGGGATC
DNA 2: GATCCCTTGCCTATGTTCCCCACCCACTTTTGTATCTGGCCGTAGAAGCGGCTGAAGTAGTATGACCACAGGATGTGATGTGCAGCTGTCATGCAGGGCAGGAAGCCCTGTGGGCCACAGGCAGCAGCTGCTGGGAGTCATCTGTTTCAGAAGTAATGGATC

Key:
CEBPβ T167D = CEBPβ T167D (mouse, UniProt P28033-3 1-275, T167D); assay: EMSA
TFAP-2α = TFAP-2α (human, UniProt P05549 1-437); assay: EMSA
Sequence of TFAP-2α (P05549 whole entry): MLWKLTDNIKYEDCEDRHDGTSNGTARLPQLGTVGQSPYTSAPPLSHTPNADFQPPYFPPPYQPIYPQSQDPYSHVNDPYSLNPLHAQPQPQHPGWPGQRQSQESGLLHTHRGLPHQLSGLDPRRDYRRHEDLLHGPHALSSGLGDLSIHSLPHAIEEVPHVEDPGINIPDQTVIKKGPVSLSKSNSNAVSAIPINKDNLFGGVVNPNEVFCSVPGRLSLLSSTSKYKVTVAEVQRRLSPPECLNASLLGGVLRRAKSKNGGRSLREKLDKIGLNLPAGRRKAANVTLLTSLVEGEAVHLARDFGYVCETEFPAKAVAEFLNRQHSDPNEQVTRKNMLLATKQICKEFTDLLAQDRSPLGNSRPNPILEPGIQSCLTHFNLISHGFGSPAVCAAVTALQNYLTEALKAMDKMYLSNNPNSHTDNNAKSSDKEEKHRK

Sequence of CEBPβ T167D (P28033 22-296 T188D): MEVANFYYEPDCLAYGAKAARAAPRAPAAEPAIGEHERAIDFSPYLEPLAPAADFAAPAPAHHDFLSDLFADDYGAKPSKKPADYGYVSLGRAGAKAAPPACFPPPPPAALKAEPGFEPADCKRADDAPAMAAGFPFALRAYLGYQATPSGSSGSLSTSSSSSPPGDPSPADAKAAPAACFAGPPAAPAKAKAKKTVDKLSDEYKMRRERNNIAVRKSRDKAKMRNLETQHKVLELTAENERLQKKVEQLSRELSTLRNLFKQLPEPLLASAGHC

Binder | binding result (CEBPβ T167D) | binding result (TFAP-2α)
B1 | binds | 
B2 |  | binds
